assay: yeast display, Sf9 membrane polyspecificity reagent, FACS + sequencing; frameworks hold sequencing errors
How it was run: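 Synthetic nanobody libraries on Saccharomyces cerevisiae BJ5465 were galactose-induced for 36–48 hours, stained 1 hour at 4 °C with 10% biotinylated, detergent-solubilized Sf9 membrane reagent and enriched on streptavidin microbeads. FACS then separated cells into low and high (top ~1%) gates by anti-HA (expression) and streptavidin (reagent binding) fluorescence. Genes were colony-PCR amplified, MiSeq 2 × 250 sequenced and CDR-length filtered. A clone's polyreactivity label is that of its gate of origin.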

| Sequence | polyreactivity (PSR sort gate) |
| --- | --- |
| QVQLVESGGGLVQAGGSLRLSCAASGRTFKIYAMGWYRQAPGKERELVAAIRRSGGNTYYADSVKGRFTISRDNAKNTVYLQMNSLKPEDTAVYYCATRGYPGGYQRSQSMYYWGQGTQVTVSS | high polyreactivity |
| QVQLVESGGGLVQAGGSLRLSCAASGRTFKKYAMGWFRQAPGKERELVAAITGSGGSTYYADSVKGRFTISRDNAKNTVYLQMNSLKPEDTADYYCAAYAYGVWHSQDGGNYWGQGTQVTVSS | low polyreactivity |
| QVQLVESGGGLVQAGGSLRLSCAASGRTFKKYAMGWYRQAPGKERELVAAITSRGGSTYYADSVKGRFTISRDNAKNTVYLQMNSLKPEDTAVYYCNAVRGWLYVFSYPYWDDEYWGQGTQVTVSS | high polyreactivity |
| QVQLVESGGGLVQAGGSLRLSCAASGRTFKKYAMGWYRQAPGKERELVSAITGSVGSTYYADSVKGRFTISRDNAKNTVYLQMNSLIPEDTAVYYCAAYAYGVWHSQDGGNYWGQGTQVTVSS | low polyreactivity |
| QVQLVESGGGLVQAGGSLRLSCAASGRTFKLNAMGWYRQAPGKERELVAGITRTGDSTYYADSVKGRFTISRDNAKNTVYLQMNSLKPEDTAVYYCAKDGPWKFIYDYWGQGTQVTVSS | low polyreactivity |
| QVQLVESGGGLVQAGGSLRLSCAASGRTFKLYAMGWYIQAPGKERELVAAISIRGTSTYYADSVKGRFTISRDNAKNTVYLQMNSLKPEDTAVYYCAAEDRYAYYMVRWQCYYYWGQGTQVTVSS | low polyreactivity |
| QVQLVESGGGLVQAGGSLRLSCAASGRTFKLYAMGWYRQAPGKERELVAAISRSSGSTYYADSVKGRFTISRDNAKNTDYLQMNSLKPEDTAVYYCAARKNRAYGYWGQGTQVTVSS | high polyreactivity |
| QVQLVESGGGLVQAGGSLRLSCAASGRTFKPNTMGWYRQAPGKERELVAAITSSGGSTYYADSVKGRFTISRDNAKNTVYLQMNSLKPEDTAVYYCAARGGAPYRIFKDDYWGQGTQVTVSS | high polyreactivity |
| QVQLVESGGGLVQAGGSLRLSCAASGRTFKPYALGWYRQAPGKERELDAAISTGGSTNYADSEKGRFTISRDNAKNSVYLQMNSLKPEDTAVYYCAADYFLYSYFLGLMDYWGQGTLVTVSS | low polyreactivity |
| QVQLVESGGGLVQAGGSLRLSCAASGRTFKPYAMGWYRQAPGKERELVAAIRSAGTTNYADSVKGRFTISRDNAKNTVYLQMNSLKPEDTAVYYCNAGTYLRRYYGFDYWGQGTQVTVSS | high polyreactivity |
| QVQLVESGGGLVQAGGSLRLSCAASGRTFKRNAMGWYRQAPGKEREFVAVITGSGGSTYYADSVKGRFTISRDNAKNTVYLQMNSLKPEDTAVYYCAAQATRYGQYTYDYWGQGTQVTVSS | high polyreactivity |
| QVQLVESGGGLVQAGGSLRLSCAASGRTFKRYAMGWYRQAPGKERELVAAIRQRGGSTYYADSVMGRFTISRDNAKNTVYLQMNSLKPEDTAVYYCAAVIPRPYSVGFDYWGQGTQVTVSS | high polyreactivity |
| QVQLVESGGGLVQAGGSLRLSCAASGRTFKSYAMGWYRQAPWKESELVAAISYSGGSTYYADSVKGRVTISRDNAKNTVYLQMNSLKPEDTAVYYCNVVSKVIRGLSGDGYWGVGTQVTVSS | high polyreactivity |
| QVQLVESGGGLVQAGGSLRLSCAASGRTFKSYSMGWYRPAPGKERELVAAISWSGGSTYYADSVKGRFTISRDNAKNTVYLQMNSLKPEDTAVYYCAKRGYASGSKWDYGYWGQGTQVTVSS | high polyreactivity |
| QVQLVESGGGLVQAGGSLRLSCAASGRTFKTYAMGWYRQAPGKERELVAAISASGGRTYYADSVKGRFTISRDNAKNTVYLQMNSLKPEDTAVYYCAALGYILNGGDYWGQGTQVTVSS | high polyreactivity |
| QVQLVESGGGLVQAGGSLRLSCAASGRTFKTYAMGWYRQAPGKERELVAAITRRGGSTYYADSVKGRFTISSDNAKNTVYLQMNRLKPEDTAVYYCAAGFYFLSLFSGRMDYWGQGTQVTVSS | high polyreactivity |
| QVQLVESGGGLVQAGGSLRLSCAASGRTFKYNAMGWYRQAPGKERELVAAISSTGSTNYADSVKGRFTISRDNAKNTVYLQMNSLKPEDTAVYYCAASYFFVQWGWYYYWGQGTQVTVSS | low polyreactivity |
| QVQLVESGGGLVQAGGSLRLSCAASGRTFKYNAMGWYRQAPGKERELVATISGSGGRTYYADSVKGRFTISRDNAKNTVYLQMNSLTPEDTAVYYCAAVPSYHSTSPFYYWGLGTQVTVSS | high polyreactivity |
| QVQLVESGGGLVQAGGSLRLSCAASGRTFKYYAMGWYRQAPGKERELVAAISGSGGSTYYADSVKGRFTISRDNAKNTVYLQMNSLKPEDTAVYYCATGGGKTRSYNYWGQGTQVTVSS | high polyreactivity |
| QVQLVESGGGLVQAGGSLRLSCAASGRTFKYYAMGWYRQAPGKERELVAAISHSGGSTYYADSVKGRFTISRDNAKNTVYLQMNSLKPEDTAVYYCAADHGDGNYPYYYWGQGTQVTVSS | high polyreactivity |
| QVQLVESGGGLVQAGGSLRLSCAASGRTFKYYAMGWYRQAPGKERELVAAISYNGGSTFYADSVKGRFTISRDNAKNTVYLQMNSLKPVDTAVYYCAAGPRGTGKYYWGQGTQVTVSS | high polyreactivity |
| QVQLVESGGGLVQAGGSLRLSCAASGRTFKYYAMGWYRQAPGKERELVAAISYSGGSTYYADSVKGRFTISRDNAKNTVYLQMNSLKPEDTAVYYCAARFTRYYSGGDQKYDYWGQVTQVTVSS | high polyreactivity |

| Sequence | polyreactivity (PSR sort gate) |
| --- | --- |
| QVQLVESGGGLVQAGGSLRLSCAASGRTFKYYAMGWYRQAPGKERELVAAITASDGSTYYADSVKGRFTISRDNAKNTVYLQMNSLKPEDTAVYYCAAVPYRYTYDYWGQGTQVTVSS | high polyreactivity |
| QVQLVESGGGLVQAGGSLRLSCAASGRTFKYYAMGWYRQAPGKERELVATINYSGGGTNYADSVKGRYTISRDNATNTVSLQMNSLKPDDTAVYYCAARWLWRIPYDYWGEGTQVTVSS | high polyreactivity |
| QVQLVESGGGLVQAGGSLRLSCAASGRTFLALGWYRPAPGKERELVAAISRTNYADSVKGRVTISRDNAKNTVYLQMHSLKPEETAVYYCAKEYYSYEGYLGLSYVRRYDYWGQGTQVTVSS | low polyreactivity |
| QVQLVESGGGLVQAGGSLRLSCAASGRTFLFYAMGWYRQAPGKERELVASITLNGGSTYYADSVKGRFTISRDNAKNTVYLQMNSLKPEETAVYYCNKRTRYQIGYGYWGQGTQVTVSS | low polyreactivity |
| QVQLVESGGGLVQAGGSLRLSCAASGRTFLGYTMGWYRQAPGKERELVAAITSGGSTYYADSVKGRFTISRDNAKNPVYLQMNSLKPEDTAVYYCARGYFEQVQYWYDNEYDFWGQGTQVTGSS | low polyreactivity |
| QVQLVESGGGLVQAGGSLRLSCAASGRTFLIYAMGWSRPAPGKERELVAAINFSGGNTYNADSVKGRFTISRDNAKHTVYLQMNSLKPEDTAVYYCAAGVYSFRYDYWGQGTQVTVSS | low polyreactivity |
| QVQLVESGGGLVQAGGSLRLSCAASGRTFLIYAMGWYRQAPGKERELVAAITSGGRTKYADSVKGRFTISRDNAKNTVYLQMNSLKPEDTAVYYCAAESNRLRYYYWGQGTQVTVSS | high polyreactivity |
| QVQLVESGGGLVQAGGSLRLSCAASGRTFLIYAMGWYRQAPGKERELVAGITRGSTTYADSVKGRFTISRDNAKNTVYLQMNSLKPEDTEVYYCAARNYSVATYGEYDYWGQGTQVTVSS | high polyreactivity |
| QVQLVESGGGLVQAGGSLRLSCAASGRTFLLNAMGWYRQAPGKERELVAAITGSGGRTNYADSVKGRFTISRDNAKNTVYLQMNSLKPEDTAVYYCNARFPDWALSEISHSTTYGYWGQGTQVTVSS | low polyreactivity |
| QVQLVESGGGLVQAGGSLRLSCAASGRTFLRNAMGWYRQAPGKERELVAAISWRGGSTYYADSLKGRFTISRDNAKNTVYLQMNSLKPEDTAVYYCNARDGLASDWGQGTQVTVSS | high polyreactivity |
| QVQLVESGGGLVQAGGSLRLSCAASGRTFLRYAMGWYRQAPRKERELVAAISVSGASTNYADSVKGRFTISRDYAKNTVYLQMNSLKPEDTAVYYCAARVADYDGVPLYRHGDYWGQGTQVTVSS | low polyreactivity |
| QVQLVESGGGLVQAGGSLRLSCAASGRTFLSYAMGWYRQAPGKERELVAAITSSGGTTNYADSVKGRFTISRDNAKNTVYLQMNSLKPEDTAVYYCAAYSWYFGSRYDYWGQGTQVTVSS | low polyreactivity |
| QVQLVESGGGLVQAGGSLRLSCAASGRTFLTNAMGWYRQAAGKERELVAAITSSGGNTYYADSVKGRFTISRDNAKNTVYLQMNSLKPEDTAVYYCAAPGYVWYGGRWVYRYYYWGQGTQVTVSS | high polyreactivity |
| QVQLVESGGGLVQAGGSLRLSCAASGRTFLTNAMGWYRQAPGKERELVAAITSSGGSTYYADSVKGRFTISRDNAKNTVYLLMNSLKPEDTAVYYCNKKSALYRRYDYWGQGTQVTVSS | low polyreactivity |
| QVQLVESGGGLVQAGGSLRLSCAASGRTFLVNAMGWYRQAPGKERELVAAISQRGGSTDYADSVKGRFTISRDNAKNTVYLQMNSLKPEDTAVYYCAVRWGYLYDYWGQGTQVTVSS | low polyreactivity |
| QVQLVESGGGLVQAGGSLRLSCAASGRTFLVNAMGWYRQAPGKERELVAVMTRGGSTNYADSVKGRFTISRDNAKNTVYLQMNSLKPEDTAVYYCAKQFSPYRSYGPVVRYDYWGQGTQVTVSS | low polyreactivity |
| QVQLVESGGGLVQAGGSLRLSCAASGRTFLVNAMGWYRQAPGKEREYVAAINFSVGTTTYADSVKGRFTISRDNAKNTVYLQMNSLKPEDTAVYYCNTYGRYWYIREDYWGQGTQVTVSS | high polyreactivity |
| QVQLVESGGGLVQAGGSLRLSCAASGRTFLVYAMGWYRQAPGKERELVAAISSDGSTNYADSVKGRFTISRDNAKNTVYLQMNSLKPEDTAVYYCARDGRTEHRGFDYWGQGTQVTVSS | low polyreactivity |
| QVQLVESGGGLVQAGGSLRLSCAASGRTFLYNTMGWYRQAPGKERELVAVISIDGGGTYADSVKGRFTISRDNAKNNVYLQMNSLKPEDTAVYDCAVDALCITYGYWGQGTQVTVSS | low polyreactivity |
| QVQLVESGGGLVQAGGSLRLSCAASGRTFLYYAMGWYRQAPGKERELVAAISSGGSTNYADSVKGRFTISRDNAKNTVYLQMNSLKPEDTAVYYCNADYTSRDTSDVIYEYDYWGQGTQVTVSS | low polyreactivity |
| QVQLVESGGGLVQAGGSLRLSCAASGRTFLYYAMGWYRQAPGKERELVAGITSGGSTNYADSVKGRFTITRDNAKNTVYLQMNSLKPEDTAVYYCAVDQGYSRTADVNYDYWGQGTQVTVSS | low polyreactivity |
